Test [1] addresses T1, antigenic peptide of amino acid sequence at positions 106-126 of a heavy chain of HLA-G molecules … (human).
T1 construct: Synthesized peptide, coated on ELISA plates at 2 ug/ml; also called immunogen
T1 peptide: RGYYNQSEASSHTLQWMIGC
The test is described as follows: ELISA, peptide coated at 2 ug/ml, antibody titrated; logistic fit. For orientation: ELISA stands for enzyme-linked immunosorbent assay.
Method: (§1) The antigen (SEQ No. 17 [sequence]) was diluted with the coating buffer, with the final concentration of 2 μg/ml, 100 ul/well, and placed at 4° C. overnight; washed with the wash buffer twice, blocked with the blocking buffer at 200 ul/well, incubated at 37° C. for 2 hours; then washed once with the wash buffer. The purified antibody was diluted by 2-fold starting from 200-fold (PBS), and the blank control (blank) was PBS, 100 ul/well, and incubated at 37° C. for 1 hour; and then washed 3 times with the wash buffer. The secondary antibody diluted with PBS by 20,000-fold was added, 100 ul/well, and incubated in a 37° C. incubator for 1 hour; taken out and washed 3 times with a wash buffer. Then the color development was performed with a developing solution of 100 ul/well for 5-15 minutes. Then 50 ul of stop solution was added to each well to stop. The absorbance value was measured at dual wavelengths (450, 630), and a chart was drawn for analysis.

Test [2] deals with T2, HLA-G3 standard protein (human, UniProt P17693-3 25-154, limits assumed).
T2 construct: Standard protein run on denaturing PAGE for immunoblotting
The test is described as follows: immunoblotting of standard proteins after denaturing PAGE. In general terms: Immunoblotting shows a protein as a band on a membrane.
Method: (§2) The denaturing PAGE electrophoresis of the standard proteins of HLA-G isoforms (HLA-G1, HLA-G2, HLA-G3, HLA-G4, HLA-G5, HLA-G6 and HLA-G7) was performed. After semi-dry electroporating, 5% skimmed milk powder was used to block at room temperature for 4 hours, and washed with 0.2% TBS (Tween-20 PBS).

Test [3] deals with T3, HLA-G2 standard protein (human, UniProt P17693-2 25-246, limits assumed).
T3 construct: Standard protein run on denaturing PAGE for immunoblotting
The description is as above.
Method: as §2

The target in test [4] is T4, HLA-G6 standard protein (human, UniProt P17693-6 25-227, limits assumed).
T4 construct: Standard protein run on denaturing PAGE for immunoblotting
Described as above.
Method: as §2

In test [5] the target is T5, HLA-G7 standard protein (human, UniProt P17693-7 25-116, limits assumed).
T5 construct: Standard protein run on denaturing PAGE for immunoblotting
The test is described as above.
Method: as §2

Test [6] addresses T1, antigenic peptide of amino acid …. The test is described as follows: ELISA, peptide coated at 2 ug/ml, antibody stock 3.0 mg/mL titrated.
Method: as §1

B1: monoclonal antibody (YWHG-4) against HLA-G isoforms (HLA-G1, HLA-G4, HLA-G5) (antibody, V domains shown)
VH: VQLQQSGAEVVRPGTSVKVSCKASGYASTNYLVEWIKQRPGQGLEWIGVINPGSGRIYYSEKFKGKTTLTADKSSSNAYMQLSSLTSDDSAVYFCARHYGNSAWFAYWGQGTLVTVSA
VL: DIVITQDELSLPVSLGDQAAISCRSSQSIVHSNGNTYLEWYLQKPGQSPKLLIYKVSNRFSGVPDRFRGSGSGTDFTLKISRVEAEDLGVYYCFQASHVPYTFGGGTKLEIKR
notes: FITC-labeled in the flow cytometry; also called hybridoma CCTCC NO: 2021204
Turning to B1, the Ka in test [1] is 9.87e+09 M⁻¹. Besides, the binding result in test [2], in test [3], in test [4] and in test [5] was “no binding” each time. For the same molecule, the “antibody dilution factor corresponding to 1/2 OD value” in test [6] is 197000 fold dilution.

For the origin of these results see patent US20250289892A1 (TAIZHOU ENZE MEDICAL CENTER GROUP, published 2025).
